Test results reported in patent US20240240160A1, “NOVEL OLIVETOL SYNTHASES FOR C[…]” (priority 2021, published 2024).

Columns and labels:
[1] = system: AAZ32094.1 from Oncidium hybrid cultivar (SEQ ID NO:2); assay: Product inhibition assay with butyryl-CoA and malonyl-CoA; format: biochemical
Protocol: (§1) Assays were performed in a total volume of 50 μL in 100 mM Tris, pH 7.5 buffer containing 100 μM malonyl-CoA; 100 µM hexanoyl-CoA; a malonyl-CoA regenerating system comprising malonyl-CoA synthetase, excess malonate, and ATP; and excess purified olivetolic acid cyclase (OAC). The major product in this assay was olivetolic acid (OLA), and the triketide pentyl diacetic acid lactone (PDAL) was a side product. N-His-tagged purified enzymes were assayed under these assay conditions at enzyme concentrations and reaction times suitable for initial rate measurements of product formation. Reactions were initiated by addition of the PKS, then incubated for 30 min. Subsequently, 10 μL of reaction solution was removed and quenched into 15 volumes of 75% acetonitrile containing 0.1% formic acid and internal standards, then centrifuged to pellet denatured protein. Supernatants were transferred to fresh plates for LC-MS analysis of OLA, olivetol (OL), and PDAL as described in the Method section above.
(§2) Assays were performed as described in Example 3 with the following exception: instead of hexanoyl-CoA (C6), butyryl-CoA (C4) was used as substrate along with malonyl-CoA, in order to evaluate the inhibitory effect of the products with hexanoyl-CoA (i.e., OLA, OL and PDAL) on the activity of the enzymes. Accordingly, the products in this assay were the tetraketides divarinic acid (DVA) and divarinol (DVL) and the triketide propyl diacetic acid lactone (propyl-DAL) (see FIG. 4). The rates to form these products were measured in the presence of various concentrations of OLA, OL, and PDAL.

[2] = system: QDX46968.1 from Anoectochilus roxburghii (SEQ ID NO:6); assay: as above; format: biochemical
Protocol: as §1, §2

OLS from C. sativa = target: T1, OLS from C. sativa (Cannabis sativa, UniProt B1Q2B6); assay: as above; format: biochemical; settings: for amount of DVA+DVL formed by the enzyme: at 1 mM of the added product, butyryl-CoA substrate; for enzyme activity: at 2 mM of the added product
T1 construct: made in house
T1 sequence (B1Q2B6 1-385): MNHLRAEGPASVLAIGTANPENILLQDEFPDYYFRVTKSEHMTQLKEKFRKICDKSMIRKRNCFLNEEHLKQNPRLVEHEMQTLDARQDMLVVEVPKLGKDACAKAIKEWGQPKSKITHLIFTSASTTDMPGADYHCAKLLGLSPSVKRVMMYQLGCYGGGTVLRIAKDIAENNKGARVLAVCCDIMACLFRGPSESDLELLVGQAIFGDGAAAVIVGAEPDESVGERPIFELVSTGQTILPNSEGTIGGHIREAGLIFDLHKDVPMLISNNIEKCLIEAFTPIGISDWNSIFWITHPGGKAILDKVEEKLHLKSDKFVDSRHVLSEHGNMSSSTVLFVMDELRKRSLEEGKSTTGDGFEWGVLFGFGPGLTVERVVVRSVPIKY
Protocol: as §1, §2

[3] = system: E. coli derivative strain which overexpressed an acyl-CoA synthetase (fadD) gene and expressed an olivetolic acid cyclase (OAC) from Cannabis sativa; assay: OL, OLA and PDAL production in E. coli from genome-integrated Type-III PKS genes; format: cell-based; settings: for Total: OL + OLA + PDAL; for OL / OLA / PDAL: constitutive promoter, 4 mM hexanoic acid
Protocol: (§3) To test olivetolic acid production in E. coli, strains comprising a putative OLS gene and an OAC gene from C. sativa were inoculated in multi-well plates containing LB supplemented with 1% glucose and appropriate concentrations of antibiotics. After 6 hours of cultivation at 32° C., the cells were transferred with a 10% inoculum to a P-limited seed medium (see Table 2) and cultivated for ˜18 hours at 32° ° C. to reach an OD of 2.0-4.0. The cultures were transferred with a 20% inoculum in a P-minimal medium (see Table 3) supplemented with 2% glucose and appropriate concentrations of antibiotics. After 3 hours of cultivation at 32° C., the culture was spiked with 4 mM hexanoic acid (˜OD 1.5-2.0). The resulting cultures were then harvested at either 3 hours or 21 hours post hexanoic acid spike; a final OD was taken. 300 μL of butyl acetate containing 500 mg/L undecanoic acid was added to each multi-well plate. The plates were then vortexed for 30 minutes at 1500 rpm and centrifuged for 10 minutes at 4500 rpm. 50 μL of organic layer was transferred to a 96-well plate and derivatized with 50 μL of N,O-Bis(trimethylsilyl)trifluoroacetamide (BSTFA). The plate was then incubated at room temperature for 2 hours to allow for complete derivatization. The samples were then run on GC-FID for analytical quantification of olivetolic acid (OLA), olivetol (OL), PDAL, and hexanoic acid.
(§4) Olivetol, PDAL, OLA, HTAL, CBGA and combinations thereof were analyzed by LCMS or LCMS/MS methods using C18 reversed phase chromatography coupled to either EXACTIVE™ (ThermoFisher) or QTRAP® 4500 (Sciex) mass spectrometers.
(§5) For reversed phase LCMS, compounds were identified by their LC retention times and MRM transitions specific to the compounds. LCMS/MS analysis was conducted on a Shimadzu UHPLC system coupled with AB Sciex QTRAP 4500 mass spectrometer. Agilent Eclipse XDB C18 column (4.6×3.0 mm, 1.8 μm) was used with a 1-min gradient elution at 1 mL/min using water containing 0.1% ammonia acetate as mobile phase A and 90% methanol containing 0.1% ammonia acetate as mobile phase B. The LC column temperature was maintained at 45° C. Negative ionization mode was used for all the analytes.
Three of the type-III PKS genes from Example 1 were integrated under control of a constitutive promoter into an E. coli derivative strain which overexpressed an acyl-CoA synthetase (fadD) gene and expressed an olivetolic acid cyclase (OAC) from Cannabis sativa.
(§6) The in vivo assay procedure and analytical methods were performed as described above.

[4] = system: E. coli derivative strain which overexpressed an acyl-CoA synthetase (fadD) gene and expressed an olivetolic acid cyclase (OAC) from Cannabis sativa; assay: OL, OLA and PDAL production in E. coli from plasmid-expressed Type-III PKS genes; format: cell-based; settings: gene on plasmid; for Total: OL + OLA + PDAL; for OL / OLA / PDAL: constitutive promoter, culture spiked with 4 mM hexanoic acid
Protocol: as §3, §4, §5
The genes for 20 Type-III PKS enzymes were codon optimized for E. coli and cloned under control of a constitutive promoter into an expression vector (p15a replicon, carbenicillin resistance marker). The 20 plasmids were transformed into an E. coli derivative strain which overexpressed an acyl-CoA synthetase (fadD) gene and expressed an olivetolic acid cyclase (OAC) from Cannabis sativa.
as §6

[5] = system: hexanoyl-CoA and malonyl-CoA; assay: Specific activity assay of purified type-III polyketide synthases (OLA formation in presence of OAC); format: biochemical; settings: hexanoyl-CoA and malonyl-CoA in the presence of OAC; FIG. 3
Protocol: In this Example, the specific activities of three previously uncharacterized type-III polyketide synthases (PKS) to form olivetolic acid from hexanoyl-CoA and malonyl-CoA in the presence of olivetolic acid cyclase (OAC) were determined and compared to the olivetol synthase (OLS) from C. sativa.
as §1

[6] = increasing concentrations of the added product
[7] = at 1 mM OLA, butyryl-CoA substrate

CCCCCc1cc(O)cc(O)c1 [OL, olivetol]
effect on formation of the tetraketide products (DVL+DVA) [1, 6]: not inhibited
effect on the triketide product propyl-DAL [1, 6]: decreased
effect on formation of the tetraketide products (DVL+DVA) [2, 6]: not inhibited
effect on the triketide product propyl-DAL [2, 6]: decreased
amount of DVA+DVL formed by the enzyme (OLS from C. sativa): 2 µM
enzyme activity (OLS from C. sativa): almost completely inactive

CCCCCc1cc(O)cc(O)c1C(=O)O [OLA, olivetolic acid]
amount of DVA+DVL formed [1, 7]: about 9 μM
amount of the triketide propyl-DAL [1, 7]: 3 to 5 µM
effect on formation of the tetraketide products (DVL+DVA) [1, 6]: not inhibited, but rather stimulated
effect on the triketide product propyl-DAL [1, 6]: inhibited
amount of DVA+DVL formed [2, 7]: about 9 μM
amount of the triketide propyl-DAL [2, 7]: 3 to 5 µM
effect on formation of the tetraketide products (DVL+DVA) [2, 6]: not inhibited, but rather stimulated
effect on the triketide product propyl-DAL [2, 6]: inhibited
amount of DVA+DVL formed by the enzyme (OLS from C. sativa): 1.5 µM
enzyme activity (OLS from C. sativa): almost completely inactive

CCCCCc1cc(O)cc(=O)o1 [PDAL, pentyl diacetic acid lactone]
effect on activity of the enzyme [1, 6]: not inhibited
effect on activity of the enzyme [2, 6]: not inhibited
inhibition of the activity of OLS from C. sativa (OLS from C. sativa; [6]): inhibitory, but to a somewhat lesser extent

B1: AIM58716.1: Type-III PKS enzyme from Cymbidium hybrid cultivar (protein)
chain: MPSLESVKKSNRADGFASILAIGRANPENFIEQSTYPDFFFRVTNSEHLVNLKKKFQRICDKTAIRKRHFVWNEELLNANPCLGTFMDNSLNVRQEFAIREIPKLGAEAATKAIQEWGQPKSRITHLIFCTTSGMDLPGADYQLTQILGLNPNIERVMLYQQGCFAGGTTLRLAKCLAESRKGARVLVVCAETTAVLFRAPSEEHQDDLVTQALFADGASALIVGADPDETAHERASFVIVSTSQVLLPDSAGAIGGHVSEGGLIATLHRDVPQIVSKNVGKCLEEAFTPLGISDWNSIFWVPHPGGRAILDQVEERVGLKPEKLIVSRHVLAEYGNMSSVCVHFALDEMRKRSKKEGKATTGEGLDWGVLFGFGPGLTVETVVLHSVPI
modifications: Cymbidium hybrid cultivar; (1)..(390) AIM58716.1
products produced by strains with chromosomally expressed enzyme [3]: produced olivetol (OL), olivetolic acid (OLA) and pentyl diacetic acid lactone (PDAL)
Total [3]: 927 µM
OL [3]: 249 µM
OLA [3]: 472 µM
PDAL [3]: 206 µM
Total [4]: 1045 µM
OL [4]: 427 µM
OLA [4]: 436 µM
PDAL [4]: 181 µM

B2: QCO76957.1: Type-III PKS enzyme from Dendrobium officinale (protein)
chain: MPSLESIRKAPRANGFASILAIGRANPENFIEQSTYPDFFFRITNSEHLVDLKKKFQRICDKTAIRKRHFVWNEEFITTNPCLHTFMDKSLDVRQEVAIREIPKLGAKAAAKAIQEWGQPKSRITHLIFCTTSGMDLPGADYQLTQILGLNPNVERVMLYQQGCFAGGTTLRLAKCLAESRKGARVLVVCAETTTVLFRGPSEEHQEDLVTQALFADGASALIVGADPDEAAHERASFVIVSTSQVLLPDSAGAIGGHVSEGGLLATLHRDVPKIVSKNVEKCLEEAFTPFGITDWNSIFWVPHPGGRAILDLVEERVGLKPEKLLVSRHVLAEYGNMSSVCVHFALDEMRKRSAIEGKATTGEGLEWGVVFGFGPGLTVETVVLRSVPL
modifications: Dendrobium officinale; (1)..(390) QCO76957.1
products produced by strains with chromosomally expressed enzyme [3]: produced olivetol (OL), olivetolic acid (OLA) and pentyl diacetic acid lactone (PDAL)
Total [3]: 483 µM
OL [3]: 178 µM
OLA [3]: 223 µM
PDAL [3]: 82 µM
Total [4]: 2095 µM
levels of OLA relative to the E. coli strain with OLS from C. sativa [4]: over two-fold
OL [4]: 579 µM
OLA [4]: 754 µM
PDAL [4]: 761 µM

B3: AAZ32094.1: Type-III PKS enzyme from Oncidium hybrid cultivar (protein)
chain: MPSLESVKNAKRAEGFASILAIGRANPEHFIEQSSYPDFFFRVTNSEHLVALKKKFQRICDKTAIRKRHFAWNEELLTTNSCFQTFMGNSLNVRQEFAIREIPKLGAQAANKAIQEWGQPKSRITHLIFCTTSGMDLPGADYQLTEILGLNPNVERVMLYQQGCFAGGTTLRLAKCLAESRKGARVLVVCAETTTVLFRAPSEEHQDDLVTQALFADGASALIVGADPDEAAHERASFIIVSTSQVLLPDSAGAIGGHVSEGGLLATLHRDVPQIVSKNVGKCLEEAFTPLGISDWNSIFWVPHPGGRAILDQIEERVGLKPEKLFISRHVLAEYGNMSSVCVHFALDEMRKRSAKEGKATTGEGLDWGVLFGFGPGLTVETVVLHSVPVTN
modifications: Oncidium hybrid cultivar; (1)..(392) AAZ32094.1
products produced by strains with chromosomally expressed enzyme [3]: produced olivetol (OL), olivetolic acid (OLA) and pentyl diacetic acid lactone (PDAL)
Total [3]: 1038 µM
OL [3]: 355 µM
OLA [3]: 534 µM
PDAL [3]: 149 µM
Total [4]: 1781 µM
levels of OLA relative to the E. coli strain with OLS from C. sativa [4]: over two-fold
OL [4]: 672 µM
OLA [4]: 751 µM
PDAL [4]: 358 µM
specific activity to form olivetolic acid compared with OLS from C. sativa [5]: higher specific activities
